In patent publication US20230212305A1 (published 2023):

T1: human ABCG2 (human, UniProt Q9UNQ0 1-655)
T1 sequence: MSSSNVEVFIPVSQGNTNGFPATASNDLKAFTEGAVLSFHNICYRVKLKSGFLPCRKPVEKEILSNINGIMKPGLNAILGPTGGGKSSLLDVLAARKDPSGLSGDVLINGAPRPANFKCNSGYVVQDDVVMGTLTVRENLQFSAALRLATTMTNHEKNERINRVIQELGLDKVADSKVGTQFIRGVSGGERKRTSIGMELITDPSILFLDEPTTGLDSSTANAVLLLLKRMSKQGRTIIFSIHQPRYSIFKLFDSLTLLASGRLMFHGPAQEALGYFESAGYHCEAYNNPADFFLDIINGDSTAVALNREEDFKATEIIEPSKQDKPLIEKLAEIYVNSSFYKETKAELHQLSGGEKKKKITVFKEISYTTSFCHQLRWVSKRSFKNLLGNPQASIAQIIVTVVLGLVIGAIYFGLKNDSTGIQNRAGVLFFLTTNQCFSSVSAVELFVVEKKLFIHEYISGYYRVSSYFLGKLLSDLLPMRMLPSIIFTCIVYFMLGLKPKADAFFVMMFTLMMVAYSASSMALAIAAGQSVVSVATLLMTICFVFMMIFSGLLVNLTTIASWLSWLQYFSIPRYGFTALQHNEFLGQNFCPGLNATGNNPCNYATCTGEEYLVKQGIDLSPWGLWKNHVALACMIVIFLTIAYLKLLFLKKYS

T2: cynomolgus ABCG2 (Macaca fascicularis) (Macaca fascicularis (cynomolgus), UniProt Q5MB13 1-654 (rhesus entry))
T2 construct: also called cABCG2
T2 sequence: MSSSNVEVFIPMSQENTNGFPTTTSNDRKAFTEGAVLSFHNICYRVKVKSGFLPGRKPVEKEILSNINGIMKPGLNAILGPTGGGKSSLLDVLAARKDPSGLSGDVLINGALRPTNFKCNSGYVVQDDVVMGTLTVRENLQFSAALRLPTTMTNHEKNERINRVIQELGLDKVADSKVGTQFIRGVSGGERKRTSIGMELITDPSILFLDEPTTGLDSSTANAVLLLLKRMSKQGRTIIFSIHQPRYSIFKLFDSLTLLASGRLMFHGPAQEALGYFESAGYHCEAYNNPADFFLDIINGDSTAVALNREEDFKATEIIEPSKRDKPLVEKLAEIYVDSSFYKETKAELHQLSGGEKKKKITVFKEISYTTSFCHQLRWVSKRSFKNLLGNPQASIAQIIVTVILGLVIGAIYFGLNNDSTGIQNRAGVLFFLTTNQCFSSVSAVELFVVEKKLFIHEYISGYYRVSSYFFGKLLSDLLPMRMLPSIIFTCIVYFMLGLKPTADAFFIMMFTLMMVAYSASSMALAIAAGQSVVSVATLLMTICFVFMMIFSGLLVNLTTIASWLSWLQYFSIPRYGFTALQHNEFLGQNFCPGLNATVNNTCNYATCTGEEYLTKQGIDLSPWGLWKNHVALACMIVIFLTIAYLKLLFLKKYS

B1: G2.640 (antibody, human IgG1, V domains shown)
VH: EVKLEESGPGLVQPSQTLSLTCTVSGFSLTSDGVSWVRQPPGKGLEWIAAISSGGSTYYNSALKSRLSISRDTSKSQVFLKMNSLQTEDTAIYFCTRDTYYGYNQIPFVYWGQGTLVTVSS
VL: DIVIIQSPPSLSASLGDKVTISCQASQNIHRYIAWYQQKPGKAPRLLIRYTSTLESGTPSRFSGSGSGRDYSFSISNVESEDIASYYCLQYVNLWTFGGGTKLELK
notes: Raised in rats
B2: G2.256 mouse (antibody, human IgG1, V domains shown)
VH: EVQLQQSGPELVKPGASLKISCKTFGYSFTGYYMHWVKQSPEKSLEWIGKIVPSTGGTTYNQKFKAKATLTVDKSSFTAYMQLKSLTSEDSAVYYCAREKVYGYDVYYFDYWGQGTTLTVSS
VL: DIVMSQSPATLSVTPGDRVSLSCRASQSISDYLHWYQQKSHESPRLLIKYASQSISGIPSRFSGSGSGSDFTLSINSVEPEDVGVYYCQNGHSFPWTFGGGTKLEIK
notes: Variable regions cloned onto human IgG1 constant heavy chain and human kappa constant light chain

Experiments:
human ABCG2 [1] = target: T1, human ABCG2; assay: cell-based or functional assay
human ABCG2 [2] = target: T1, human ABCG2; assay: flow cytometry, 293T cells overexpressing human ABCG2
Protocol: (§1) Cell Binding Assays. Antibody binding to cells was evaluated by flow cytometry. […] After incubating cells on ice for 30 min, cells were washed twice with flow cytometry buffer. Bound antibody was detected with PE-labeled F(ab′)₂ fragment goat anti-human IgG (Jackson ImmunoResearch) and evaluated on an Attune NxT flow cytometer.

[3] = target: T2, cynomolgus ABCG2 (Macaca fascicularis); assay: flow cytometry, 293T cells overexpressing cynomolgus ABCG2
Protocol: as §1

human ABCG2 [4] = target: T1, human ABCG2; assay: flow cytometry (FACS) on 293T_ABCG2_OX cells
[5] = target: T2, cynomolgus ABCG2 (Macaca fascicularis); assay: flow cytometry on cells expressing cynomolgus ABCG2; paragraph 395: non-significant binding = -
Protocol: as §1

Row | Binder | IC50 of topotecan cytotoxicity in the presence of the antibody (human ABCG2 [1]) [nM] | binding result (human ABCG2 [2]) | binding result [3] | binding result (human ABCG2 [4]) | binding result [5]
1 | B1 | 6.9 | no binding | no binding | – | –
2 | B2 | – | – | – | binds | no binding
